Source: PMC6555819, “Comprehensive study of nuclear receptor DNA binding provides a revised framework for understanding receptor specificity”

B1: NRC3_wobSeed113_DR4_T8C_o1 (dsDNA)
DNA 1: GCATATGCAGGTTAGCTGGGGTCATTCAGACTAGGCGCGATTGACAGCGTAGAATGAAGG
DNA 2: CCTTCATTCTACGCTGTCAATCGCGCCTAGTCTGAATGACCCCAGCTAACCTGCATATGC
B2: NRC3_wobSeed113_DR4_G29T_o1 (dsDNA)
DNA 1: GCATATGTAGGTTAGCTGGGGTCATTCATACTAGGCGCGATTGACAGCGTAGAATGAAGG
DNA 2: CCTTCATTCTACGCTGTCAATCGCGCCTAGTATGAATGACCCCAGCTAACCTACATATGC
B3: NRC3_wobSeed103_DR4_A13C_o1 (dsDNA)
DNA 1: GCGCATATAGGTCATACAAGGTGAAAGTCCGATTGTGCGATTGACAGCGTAGAATGAAGG
DNA 2: CCTTCATTCTACGCTGTCAATCGCACAATCGGACTTTCACCTTGTATGACCTATATGCGC
B4: NRC3_wobSeed106_DR4_G15T_o1 (dsDNA)
DNA 1: GCCTCGAAAGGTCGTTTGAGGTGAGTATACGGATAAGCGATTGACAGCGTAGAATGAAGG
DNA 2: CCTTCATTCTACGCTGTCAATCGCTTATCCGTATACTCACCTCAAACGACCTTTCGAGGC
B5: NRC3_wobSeed46_DR1_G13C_o1 (dsDNA)
DNA 1: GCTTACCAAGGTCAAAGGTCGTTGATGCACGCCTTGGCGATTGACAGCGTAGAATGAAGG
DNA 2: CCTTCATTCTACGCTGTCAATCGCCAAGGCGTGCATCAACGACCTTTGACCTTGGTAAGC
B6: NRC3_wobSeed117_DR4_A15C_o1 (dsDNA)
DNA 1: GCCGTCAAAGTTCACCTAAGGTAACGTAAAGCACGCGCGATTGACAGCGTAGAATGAAGG
DNA 2: CCTTCATTCTACGCTGTCAATCGCGCGTGCTTTACGTTACCTTAGGTGAACTTTGACGGC
B7: NRC3_wobSeed117_DR4_C16T_o1 (dsDNA)
DNA 1: GCCGTCAAAGTTCAATTAAGGTAACGTAAAGCACGCGCGATTGACAGCGTAGAATGAAGG
DNA 2: CCTTCATTCTACGCTGTCAATCGCGCGTGCTTTACGTTACCTTAATTGAACTTTGACGGC
B8: NRC3_wobSeed53_DR2_C8G_o1 (dsDNA)
DNA 1: GCCCTTAGGGGTCACGAGGTTATAGCACGACGAGCGGCGATTGACAGCGTAGAATGAAGG
DNA 2: CCTTCATTCTACGCTGTCAATCGCCGCTCGTCGTGCTATAACCTCGTGACCCCTAAGGGC
B9: NRC3_wobSeed45_DR1_T11G_o1 (dsDNA)
DNA 1: GCTGTCAAAGGTCAAAGGTAACGTAAGTATCCACACGCGATTGACAGCGTAGAATGAAGG
DNA 2: CCTTCATTCTACGCTGTCAATCGCGTGTGGATACTTACGTTACCTTTGACCTTTGACAGC
B10: NRC3_wobSeed28_DR1_C12T_o1 (dsDNA)
DNA 1: GCCCTACTGGGTCAAAGGTCATTGATTCCAATGCTCGCGATTGACAGCGTAGAATGAAGG
DNA 2: CCTTCATTCTACGCTGTCAATCGCGAGCATTGGAATCAATGACCTTTGACCCAGTAGGGC
B11: NRC3_wobSeed42_DR1_A8G_o1 (dsDNA)
DNA 1: GCTATACGGGGTCAAAGGCCAGAGTACGAATGTCGAGCGATTGACAGCGTAGAATGAAGG
DNA 2: CCTTCATTCTACGCTGTCAATCGCTCGACATTCGTACTCTGGCCTTTGACCCCGTATAGC
B12: NRC3_wobSeed98_DR4_G15A_o1 (dsDNA)
DNA 1: GCACTAGTTGGTCAACTGAGGTCACACACAATTCGGGCGATTGACAGCGTAGAATGAAGG
DNA 2: CCTTCATTCTACGCTGTCAATCGCCCGAATTGTGTGTGACCTCAGTTGACCAACTAGTGC
B13: NRC3_wobSeed109_DR4_T26A_o1 (dsDNA)
DNA 1: GCCGTCCAAGGTCATAGGAGGTCAGAGAAGACAGATGCGATTGACAGCGTAGAATGAAGG
DNA 2: CCTTCATTCTACGCTGTCAATCGCATCTGTCTTCTCTGACCTCCTATGACCTTGGACGGC
B14: NRC3_wobSeed97_DR4_A17T_o1 (dsDNA)
DNA 1: GCCAAACTAGGTCACGTAAGGTCAAAGTCGAATGACGCGATTGACAGCGTAGAATGAAGG
DNA 2: CCTTCATTCTACGCTGTCAATCGCGTCATTCGACTTTGACCTTACGTGACCTAGTTTGGC
B15: NRC3_wobSeed97_DR4_A17C_o1 (dsDNA)
DNA 1: GCCAAACTAGGTCACGCAAGGTCAAAGTCGAATGACGCGATTGACAGCGTAGAATGAAGG
DNA 2: CCTTCATTCTACGCTGTCAATCGCGTCATTCGACTTTGACCTTGCGTGACCTAGTTTGGC
B16: NRC3_wobSeed26_DR1_T9A_o1 (dsDNA)
DNA 1: GCTCTAGTAGGTCAAAGGTCACACACTCGAAATGCGGCGATTGACAGCGTAGAATGAAGG
DNA 2: CCTTCATTCTACGCTGTCAATCGCCGCATTTCGAGTGTGTGACCTTTGACCTACTAGAGC
B17: NRC3_wobSeed26_DR1_T9G_o1 (dsDNA)
DNA 1: GCTCTAGTGGGTCAAAGGTCACACACTCGAAATGCGGCGATTGACAGCGTAGAATGAAGG
DNA 2: CCTTCATTCTACGCTGTCAATCGCCGCATTTCGAGTGTGTGACCTTTGACCCACTAGAGC

Assays:
[1] = target: THRa:RXRa (Homo sapiens, UniProt P10827;P19793 full;full); test: no ligand; PBM; 90 nM : 90 nM RXRa; PBS pH 7.4, 2% milk, 0.02% Triton X-100, 1 mM DTT, BSA, 0.4 mg/ml salmon testes DNA; conditions: tags: His kept;His cleaved; copies: 1;1; label: surface-attached array probe
[2] = target: PPARg:RXRa (Homo sapiens, UniProt P37231;P19793 full;full); test: no ligand; PBM; 180 nM : 90 nM RXRa; PBS pH 7.4, 2% milk, 0.02% Triton X-100, 1 mM DTT, BSA, 0.4 mg/ml salmon testes DNA; conditions: tags: His kept;His cleaved; copies: 1;1; label: surface-attached array probe
[3] = target: RXRa (Homo sapiens, UniProt P19793); test: no ligand; PBM; 180 nM; PBS pH 7.4, 2% milk, 0.02% Triton X-100, 1 mM DTT, BSA, 0.4 mg/ml salmon testes DNA; conditions: tags: His cleaved; chain copies: 2; label: surface-attached array probe
[4] = target: RARg:RXRa (Homo sapiens, UniProt P13631;P19793 full;full); test: no ligand; PBM; 270 nM : 90 nM RXRa; PBS pH 7.4, 2% milk, 0.02% Triton X-100, 1 mM DTT, BSA, 0.4 mg/ml salmon testes DNA; conditions: tags: His kept;His cleaved; copies: 1;1; label: surface-attached array probe
Procedure, shortened: (§1)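 Binding z-scores were set against random background probes. The data came from custom Agilent 4×180K protein-binding microarrays carrying double-stranded probes with 34-nt variable regions, incubated 1 h with ligand-free nuclear receptor dimers. Partner-specific antibodies detected binding, and scanned fluorescence was regression-normalized.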

[5] = target: RARb:RXRa (Homo sapiens, UniProt P10826;P19793 full;full); test: as above; conditions: tags: His kept;His cleaved; copies: 1;1; label: surface-attached array probe
Procedure, shortened: as §1

[6] = target: LXRa:RXRa (Homo sapiens, UniProt Q13133;P19793 full;full); test: as above; conditions: tags: His kept;His cleaved; copies: 1;1; label: surface-attached array probe
Procedure, shortened: as §1

[7] = target: PXR:RXRa (Homo sapiens, UniProt O75469;P19793 full;full); test: as above; conditions: tags: His kept;His cleaved; copies: 1;1; label: surface-attached array probe
Procedure, shortened: as §1

[8] = target: FXR:RXRa (Homo sapiens, UniProt Q96RI1;P19793 full;full); test: as above; conditions: tags: His kept;His cleaved; copies: 1;1; label: surface-attached array probe
Procedure, shortened: as §1

[9] = target: PPARa:RXRa (Homo sapiens, UniProt Q07869;P19793 full;full); test: as above; conditions: tags: GST kept;His cleaved; copies: 1;1; label: surface-attached array probe
Procedure, shortened: as §1

[10] = target: RARa:RXRa (Homo sapiens, UniProt P10276;P19793 full;full); test: as above; conditions: tags: His kept;His cleaved; copies: 1;1; label: surface-attached array probe
Procedure, shortened: as §1

[11] = target: LXRb:RXRa (Homo sapiens, UniProt P55055;P19793 full;full); test: as above; conditions: tags: His kept;His cleaved; copies: 1;1; label: surface-attached array probe
Procedure, shortened: as §1

[12] = target: VDR:RXRa (Homo sapiens, UniProt P11473;P19793 full;full); test: as above; conditions: tags: His kept;His cleaved; copies: 1;1; label: surface-attached array probe
Procedure, shortened: as §1

Chain of VDR:RXRa (P11473 whole entry, chain 1 of 2): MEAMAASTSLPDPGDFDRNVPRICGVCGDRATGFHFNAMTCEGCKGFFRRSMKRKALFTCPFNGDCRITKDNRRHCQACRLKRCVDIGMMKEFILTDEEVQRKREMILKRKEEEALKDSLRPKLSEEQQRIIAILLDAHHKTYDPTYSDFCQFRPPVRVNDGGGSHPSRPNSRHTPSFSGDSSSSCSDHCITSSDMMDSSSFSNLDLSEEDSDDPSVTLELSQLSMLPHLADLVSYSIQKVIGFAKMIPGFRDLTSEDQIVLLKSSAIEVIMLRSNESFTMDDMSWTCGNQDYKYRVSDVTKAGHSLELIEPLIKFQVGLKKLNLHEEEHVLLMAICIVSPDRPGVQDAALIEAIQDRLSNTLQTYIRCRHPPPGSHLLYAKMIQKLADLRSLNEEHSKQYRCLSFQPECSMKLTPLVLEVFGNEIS
Chain of VDR:RXRa (P19793 whole entry, chain 2 of 2): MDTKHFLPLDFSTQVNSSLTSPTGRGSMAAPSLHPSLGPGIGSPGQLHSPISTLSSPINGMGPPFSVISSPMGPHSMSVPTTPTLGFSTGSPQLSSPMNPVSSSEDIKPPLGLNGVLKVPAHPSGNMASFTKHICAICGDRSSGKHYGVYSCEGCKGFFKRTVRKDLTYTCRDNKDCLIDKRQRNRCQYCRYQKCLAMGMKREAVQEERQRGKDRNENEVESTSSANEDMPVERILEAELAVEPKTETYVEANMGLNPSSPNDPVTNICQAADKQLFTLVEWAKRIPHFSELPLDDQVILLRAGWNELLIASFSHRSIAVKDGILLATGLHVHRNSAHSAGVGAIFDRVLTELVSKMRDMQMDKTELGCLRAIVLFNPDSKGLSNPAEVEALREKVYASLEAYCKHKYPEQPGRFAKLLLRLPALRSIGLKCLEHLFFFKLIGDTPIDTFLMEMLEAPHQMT
Chain of LXRb:RXRa (P55055 whole entry, chain 1 of 2): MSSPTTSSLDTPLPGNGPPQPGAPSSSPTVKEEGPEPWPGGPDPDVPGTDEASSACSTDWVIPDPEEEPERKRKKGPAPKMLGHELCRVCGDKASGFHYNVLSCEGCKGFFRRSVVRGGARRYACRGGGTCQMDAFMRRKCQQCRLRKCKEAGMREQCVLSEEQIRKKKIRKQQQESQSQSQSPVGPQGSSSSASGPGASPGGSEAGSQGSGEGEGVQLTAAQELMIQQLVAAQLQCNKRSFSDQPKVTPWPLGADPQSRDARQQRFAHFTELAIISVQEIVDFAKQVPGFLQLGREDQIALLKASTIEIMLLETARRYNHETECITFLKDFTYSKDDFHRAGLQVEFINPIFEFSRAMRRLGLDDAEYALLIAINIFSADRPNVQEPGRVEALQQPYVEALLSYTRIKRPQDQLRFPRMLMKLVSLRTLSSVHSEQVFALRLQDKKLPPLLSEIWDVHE
Chain of LXRb:RXRa (P19793 whole entry, chain 2 of 2): as the sequence (P19793 whole entry, chain 2 of 2) above
Chain of PPARg:RXRa (P37231 29-505, chain 1 of 2): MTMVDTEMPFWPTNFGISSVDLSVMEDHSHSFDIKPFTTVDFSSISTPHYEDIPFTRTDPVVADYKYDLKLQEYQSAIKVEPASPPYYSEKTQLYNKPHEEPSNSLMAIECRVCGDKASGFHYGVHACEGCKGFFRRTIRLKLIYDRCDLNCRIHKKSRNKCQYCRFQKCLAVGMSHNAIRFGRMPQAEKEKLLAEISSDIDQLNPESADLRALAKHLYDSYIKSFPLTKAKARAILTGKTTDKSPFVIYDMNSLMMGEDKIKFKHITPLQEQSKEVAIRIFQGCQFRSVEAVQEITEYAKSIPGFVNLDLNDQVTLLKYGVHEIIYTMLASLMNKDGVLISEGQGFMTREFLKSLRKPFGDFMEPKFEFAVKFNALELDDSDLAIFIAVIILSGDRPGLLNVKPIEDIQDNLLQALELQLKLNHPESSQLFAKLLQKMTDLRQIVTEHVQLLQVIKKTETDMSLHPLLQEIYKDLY
Chain of PPARg:RXRa (P19793 whole entry, chain 2 of 2): as the sequence (P19793 whole entry, chain 2 of 2) above
Chain of PPARa:RXRa (Q07869 whole entry, chain 1 of 2): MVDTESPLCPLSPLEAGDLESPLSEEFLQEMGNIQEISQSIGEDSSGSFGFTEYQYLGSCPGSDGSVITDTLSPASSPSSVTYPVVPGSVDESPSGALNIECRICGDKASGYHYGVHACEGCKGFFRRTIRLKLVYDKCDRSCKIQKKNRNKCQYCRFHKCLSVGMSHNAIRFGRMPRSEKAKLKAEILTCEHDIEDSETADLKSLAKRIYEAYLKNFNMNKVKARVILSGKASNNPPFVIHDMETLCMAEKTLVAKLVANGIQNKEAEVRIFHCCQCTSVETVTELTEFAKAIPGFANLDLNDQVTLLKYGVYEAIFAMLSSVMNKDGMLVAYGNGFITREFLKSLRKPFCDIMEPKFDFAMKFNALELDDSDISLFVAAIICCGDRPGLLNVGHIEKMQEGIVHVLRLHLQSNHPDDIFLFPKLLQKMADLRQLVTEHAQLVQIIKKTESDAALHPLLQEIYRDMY
Chain of PPARa:RXRa (P19793 whole entry, chain 2 of 2): as the sequence (P19793 whole entry, chain 2 of 2) above
Chain of LXRa:RXRa (Q13133 whole entry, chain 1 of 2): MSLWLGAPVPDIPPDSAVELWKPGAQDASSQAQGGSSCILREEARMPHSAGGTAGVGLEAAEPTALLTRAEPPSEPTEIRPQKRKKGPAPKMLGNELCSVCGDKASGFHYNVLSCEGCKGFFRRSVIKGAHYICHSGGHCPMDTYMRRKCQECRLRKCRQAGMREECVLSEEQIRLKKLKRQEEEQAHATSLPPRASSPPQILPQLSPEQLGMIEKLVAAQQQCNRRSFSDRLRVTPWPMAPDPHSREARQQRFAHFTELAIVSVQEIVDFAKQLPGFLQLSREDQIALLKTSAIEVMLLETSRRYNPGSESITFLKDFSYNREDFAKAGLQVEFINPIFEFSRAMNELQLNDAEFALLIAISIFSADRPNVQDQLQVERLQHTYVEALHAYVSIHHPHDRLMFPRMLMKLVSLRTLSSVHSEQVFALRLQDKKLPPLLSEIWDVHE
Chain of LXRa:RXRa (P19793 whole entry, chain 2 of 2): as the sequence (P19793 whole entry, chain 2 of 2) above

Binder	binding signal [1]	binding signal [2]	binding signal [3]	binding signal [4]	binding signal [5]	binding signal [6]	binding signal [7]	binding signal [8]	binding signal [9]	binding signal [10]	binding signal [11]	binding signal [12]
B1	5.52 PBM z-score against 500 random probes	–	–	–	–	–	–	–	–	–	–	–
B2	5.52 PBM z-score against 500 random probes	–	–	–	–	–	–	–	–	–	–	–
B3	5.57 PBM z-score against 500 random probes	–	–	–	–	–	–	–	–	–	–	–
B4	5.63 PBM z-score against 500 random probes	–	–	–	–	–	–	–	–	–	–	–
B5	–	10.5 PBM z-score against 500 random probes	9.65 PBM z-score against 500 random probes	7.78 PBM z-score against 500 random probes	5.44 PBM z-score against 500 random probes	7.04 PBM z-score against 500 random probes	7 PBM z-score against 500 random probes	8.17 PBM z-score against 500 random probes	6.85 PBM z-score against 500 random probes	8.61 PBM z-score against 500 random probes	6.04 PBM z-score against 500 random probes	–
B6	5.54 PBM z-score against 500 random probes	–	–	–	–	–	–	–	–	–	–	–
B7	5.49 PBM z-score against 500 random probes	–	–	–	–	–	–	–	–	–	–	–
B8	–	10.3 PBM z-score against 500 random probes	10.1 PBM z-score against 500 random probes	8.51 PBM z-score against 500 random probes	5.93 PBM z-score against 500 random probes	7.02 PBM z-score against 500 random probes	6.73 PBM z-score against 500 random probes	8.88 PBM z-score against 500 random probes	7.21 PBM z-score against 500 random probes	8.32 PBM z-score against 500 random probes	6.15 PBM z-score against 500 random probes	7.15 PBM z-score against 500 random probes
B9	–	12.1 PBM z-score against 500 random probes	10.1 PBM z-score against 500 random probes	8.53 PBM z-score against 500 random probes	6.49 PBM z-score against 500 random probes	7.81 PBM z-score against 500 random probes	6.66 PBM z-score against 500 random probes	9.11 PBM z-score against 500 random probes	7.31 PBM z-score against 500 random probes	8.2 PBM z-score against 500 random probes	6.94 PBM z-score against 500 random probes	–
B10	–	13.5 PBM z-score against 500 random probes	9.56 PBM z-score against 500 random probes	8.01 PBM z-score against 500 random probes	5.54 PBM z-score against 500 random probes	6.6 PBM z-score against 500 random probes	7.26 PBM z-score against 500 random probes	–	7.41 PBM z-score against 500 random probes	8.75 PBM z-score against 500 random probes	6.34 PBM z-score against 500 random probes	6.8 PBM z-score against 500 random probes
B11	–	10.7 PBM z-score against 500 random probes	9.41 PBM z-score against 500 random probes	7.59 PBM z-score against 500 random probes	–	7.28 PBM z-score against 500 random probes	6.54 PBM z-score against 500 random probes	8.52 PBM z-score against 500 random probes	7.07 PBM z-score against 500 random probes	7.79 PBM z-score against 500 random probes	7.1 PBM z-score against 500 random probes	6.76 PBM z-score against 500 random probes
B12	5.62 PBM z-score against 500 random probes	–	–	–	–	–	–	–	–	–	–	–
B13	5.62 PBM z-score against 500 random probes	–	–	–	–	–	–	–	–	–	–	–
B14	5.77 PBM z-score against 500 random probes	–	–	–	–	–	–	–	–	–	–	–
B15	5.55 PBM z-score against 500 random probes	–	–	–	–	–	–	–	–	–	–	–
B16	–	14.4 PBM z-score against 500 random probes	10.5 PBM z-score against 500 random probes	8.88 PBM z-score against 500 random probes	5.79 PBM z-score against 500 random probes	7.19 PBM z-score against 500 random probes	7.41 PBM z-score against 500 random probes	8.25 PBM z-score against 500 random probes	7.46 PBM z-score against 500 random probes	9.28 PBM z-score against 500 random probes	6.9 PBM z-score against 500 random probes	6.79 PBM z-score against 500 random probes
B17	–	13.8 PBM z-score against 500 random probes	10.2 PBM z-score against 500 random probes	8.6 PBM z-score against 500 random probes	5.62 PBM z-score against 500 random probes	6.72 PBM z-score against 500 random probes	6.94 PBM z-score against 500 random probes	–	7.42 PBM z-score against 500 random probes	8.89 PBM z-score against 500 random probes	6.79 PBM z-score against 500 random probes	7 PBM z-score against 500 random probes
